According to article PMC5505701, “Somatostatin binds to the human amyloid β peptide and favors the formation of distinct oligomers” (eLife, 2017):

Experiments:
[1] = test system: oligomeric Aβ1-42 (oAβ1-42-biotin bait); assay: Affinity capture interactome Experiment II (C-terminally tethered oAβ1-42-biotin vs biotin); details: enrichment relative to biotin-only negative control; human frontal lobe digitonin extract; TMT; pH 8.0, 4°C overnight
[2] = test system: oligomeric versus monomeric Aβ1-42 (Aβ1-42-biotin bait); assay: Affinity capture interactome Experiment III (oAβ1-42-biotin vs mAβ1-42-biotin); details: oligomeric versus monomeric bait; human frontal lobe digitonin extract; TMT; pH 8.0, 4°C overnight

Row | Molecule | Experiment II oAβ1-42-B/B Ratio [1] | Experiment III oAβ1-42-B/mAβ1-42-B Ratio [2]
1 | Ubiquitin carboxyl-terminal hydrolase L1: human brain protein (protein, UniProt P09936 1-220, looked up) Ubiquitin carboxyl-terminal …: MQLKPMEINPEMLNKVLSRLGVAGQWRFVDVLGLEEESLGSVPAPACALLLLFPLTAQHENFRKKQIEELKGQEVSPKVYFMKQTIGNSCGTIGLIHAVANNQDKLGFEDGSVLKQFLSETEKMSPEDRAKCFEKNEAIQAAHDAVAQEGQCRVDDKVNFHFILFNNVDGHLYELDGRMPFPVNHGASSEDTLLKDAAKVCREFTEREQGEVRFSAVALC | 1.87 | 1.39
2 | Peroxiredoxin-2: human brain protein (protein, UniProt P32119 2-198, looked up) Peroxiredoxin-2: ASGNARIGKPAPDFKATAVVDGAFKEVKLSDYKGKYVVLFFYPLDFTFVCPTEIIAFSNRAEDFRKLGCEVLGVSVDSQFTHLAWINTPRKEGGLGPLNIPLLADVTRRLSEDYGVLKTDEGIAYRGLFIIDGKGVLRQITVNDLPVGRSVDEALRLVQAFQYTDEHGEVCPAGWKPGSDTIKPNVDDSKEYFSKHN | 1.51 | 2.40
3 | Mu-crystallin homolog: human brain protein (protein, UniProt Q14894 1-314, looked up) Ketimine reductase …: MSRVPAFLSAAEVEEHLRSSSLLIPPLETALANFSSGPEGGVMQPVRTVVPVTKHRGYLGVMPAYSAAEDALTTKLVTFYEDRGITSVVPSHQATVLLFEPSNGTLLAVMDGNVITAKRTAAVSAIATKFLKPPSSEVLCILGAGVQAYSHYEIFTEQFSFKEVRIWNRTKENAEKFADTVQGEVRVCSSVQEAVAGADVIITVTLATEPILFGEWVKPGAHINAVGASRPDWRELDDELMKEAVLYVDSQEAALKESGDVLLSGAEIFAELGEVIKGVKPAHCEKTTVFKSLGMAVEDTVAAKLIYDSWSSGK |  | 2.41
4 | Dihydropyrimidinase-related protein 5: human brain protein (protein, UniProt Q9BPU6 1-564, looked up) Dihydropyrimidinase-related …: MLANSASVRILIKGGKVVNDDCTHEADVYIENGIIQQVGRELMIPGGAKVIDATGKLVIPGGIDTSTHFHQTFMNATCVDDFYHGTKAALVGGTTMIIGHVLPDKETSLVDAYEKCRGLADPKVCCDYALHVGITWWAPKVKAEMETLVREKGVNSFQMFMTYKDLYMLRDSELYQVLHACKDIGAIARVHAENGELVAEGAKEALDLGITGPEGIEISRPEELEAEATHRVITIANRTHCPIYLVNVSSISAGDVIAAAKMQGKVVLAETTTAHATLTGLHYYHQDWSHAAAYVTVPPLRLDTNTSTYLMSLLANDTLNIVASDHRPFTTKQKAMGKEDFTKIPHGVSGVQDRMSVIWERGVVGGKMDENRFVAVTSSNAAKLLNLYPRKGRIIPGADADVVVWDPEATKTISASTQVQGGDFNLYENMRCHGVPLVTISRGRVVYENGVFMCAEGTGKFCPLRSFPDTVYKKLVQREKTLKVRGVDRTPYLGDVAVVVHPGKKEMGTPLADTPTRPVTRHGGMRDLHESSFSLSGSQIDDHVPKRASARILAPPGGRSSGIW |  | 3.79
5 | Phosphoglycerate kinase 1: human brain protein (protein, UniProt P00558 2-417, looked up) Phosphoglycerate kinase 1: SLSNKLTLDKLDVKGKRVVMRVDFNVPMKNNQITNNQRIKAAVPSIKFCLDNGAKSVVLMSHLGRPDGVPMPDKYSLEPVAVELKSLLGKDVLFLKDCVGPEVEKACANPAAGSVILLENLRFHVEEEGKGKDASGNKVKAEPAKIEAFRASLSKLGDVYVNDAFGTAHRAHSSMVGVNLPQKAGGFLMKKELNYFAKALESPERPFLAILGGAKVADKIQLINNMLDKVNEMIIGGGMAFTFLKVLNNMEIGTSLFDEEGAKIVKDLMSKAEKNGVKITLPVDFVTADKFDENAKTGQATVASGIPAGWMGLDCGPESSKKYAEAVTRAKQIVWNGPVGVFEWEAFARGTKALMDEVVKATSRGCITIIGGGDTATCCAKWNTEDKVSHVSTGGGASLELLEGKVLPGVDALSNI | 1.38 | 1.73
6 | NAD-dependent deacetylase sirtuin-2: human brain protein (protein, UniProt Q8IXJ6 2-389, looked up) NAD-dependent protein …: AEPDPSHPLETQAGKVQEAQDSDSDSEGGAAGGEADMDFLRNLFSQTLSLGSQKERLLDELTLEGVARYMQSERCRRVICLVGAGISTSAGIPDFRSPSTGLYDNLEKYHLPYPEAIFEISYFKKHPEPFFALAKELYPGQFKPTICHYFMRLLKDKGLLLRCYTQNIDTLERIAGLEQEDLVEAHGTFYTSHCVSASCRHEYPLSWMKEKIFSEVTPKCEDCQSLVKPDIVFFGESLPARFFSCMQSDFLKVDLLLVMGTSLQVQPFASLISKAPLSTPRLLINKEKAGQSDPFLGMIMGLGGGMDFDSKKAYRDVAWLGECDQGCLALAELLGWKKELEDLVRREHASIDAQSGAGVPNPSTSASPKKSPPPAKDEARTTEREKPQ |  | 2.58
7 | Tryptophanyl-tRNA synthetase, cytoplasmic: human brain protein (protein, UniProt P23381 2-471, looked up) Tryptophan--tRNA ligase, …: PNSEPASLLELFNSIATQGELVRSLKAGNASKDEIDSAVKMLVSLKMSYKAAAGEDYKADCPPGNPAPTSNHGPDATEAEEDFVDPWTVQTSSAKGIDYDKLIVRFGSSKIDKELINRIERATGQRPHHFLRRGIFFSHRDMNQVLDAYENKKPFYLYTGRGPSSEAMHVGHLIPFIFTKWLQDVFNVPLVIQMTDDEKYLWKDLTLDQAYSYAVENAKDIIACGFDINKTFIFSDLDYMGMSSGFYKNVVKIQKHVTFNQVKGIFGFTDSDCIGKISFPAIQAAPSFSNSFPQIFRDRTDIQCLIPCAIDQDPYFRMTRDVAPRIGYPKPALLHSTFFPALQGAQTKMSASDPNSSIFLTDTAKQIKTKVNKHAFSGGRDTIEEHRQFGGNCDVDVSFMYLTFFLEDDDKLEQIRKDYTSGAMLTGELKKALIEVLQPLIAEHQARRKEVTDEIVKEFMTPRKLSFDFQ |  | 3.97
8 | ATP synthase subunit gamma, mitochondrial: human brain protein (protein, UniProt P36542 26-298, looked up) ATP synthase F(1) complex …: ATLKDITRRLKSIKNIQKITKSMKMVAAAKYARAERELKPARIYGLGSLALYEKADIKGPEDKKKHLLIGVSSDRGLCGAIHSSIAKQMKSEVATLTAAGKEVMLVGIGDKIRGILYRTHSDQFLVAFKEVGRKPPTFGDASVIALELLNSGYEFDEGSIIFNKFRSVISYKTEEKPIFSLNTVASADSMSIYDDIDADVLQNYQEYNLANIIYYSLKESTTSEQSARMTAMDNASKNASEMIDKLTLTFNRTRQAVITKELIEIISGAAALD |  | 3.29
9 | Peroxiredoxin-6: human brain protein (protein, UniProt P30041 2-224, looked up) Peroxiredoxin-6: PGGLLLGDVAPNFEANTTVGRIRFHDFLGDSWGILFSHPRDFTPVCTTELGRAAKLAPEFAKRNVKLIALSIDSVEDHLAWSKDINAYNCEEPTEKLPFPIIDDRNRELAILLGMLDPAEKDEKGMPVTARVVFVFGPDKKLKLSILYPATTGRNFDEILRVVISLQLTAEKRVATPVDWKDGDSVMVLPTIPEEEAKKLFPKGVFTKELPSGKKYLRYTPQP | 1.42 | 1.54
10 | Centractin, beta: human brain protein (protein, UniProt P42025 1-376, looked up) Beta-centractin: MESYDIIANQPVVIDNGSGVIKAGFAGDQIPKYCFPNYVGRPKHMRVMAGALEGDLFIGPKAEEHRGLLTIRYPMEHGVVRDWNDMERIWQYVYSKDQLQTFSEEHPVLLTEAPLNPSKNREKAAEVFFETFNVPALFISMQAVLSLYATGRTTGVVLDSGDGVTHAVPIYEGFAMPHSIMRVDIAGRDVSRYLRLLLRKEGVDFHTSAEFEVVRTIKERACYLSINPQKDEALETEKVQYTLPDGSTLDVGPARFRAPELLFQPDLVGDESEGLHEVVAFAIHKSDMDLRRTLFANIVLSGGSTLFKGFGDRLLSEVKKLAPKDIKIKISAPQERLYSTWIGGSILASLDTFKKMWVSKKEYEEDGSRAIHRKTF |  | 3.25
11 | Medium-chain specific acyl-CoA dehydrogenase: human brain protein (protein, UniProt P11310 26-421, looked up) Medium-chain specific …: KANRQREPGLGFSFEFTEQQKEFQATARKFAREEIIPVAAEYDKTGEYPVPLIRRAWELGLMNTHIPENCGGLGLGTFDACLISEELAYGCTGVQTAIEGNSLGQMPIIIAGNDQQKKKYLGRMTEEPLMCAYCVTEPGAGSDVAGIKTKAEKKGDEYIINGQKMWITNGGKANWYFLLARSDPDPKAPANKAFTGFIVEADTPGIQIGRKELNMGQRCSDTRGIVFEDVKVPKENVLIGDGAGFKVAMGAFDKTRPVVAAGAVGLAQRALDEATKYALERKTFGKLLVEHQAISFMLAEMAMKVELARMSYQRAAWEVDSGRRNTYYASIAKAFAGDIANQLATDAVQILGGNGFNTEYPVEKLMRDAKIYQIYEGTSQIQRLIVAREHIDKYKN |  | 1.82
12 | Cytosolic acyl CoA thioester hydrolase: human brain protein (protein, UniProt O00154 1-380, looked up) Cytosolic acyl coenzyme A …: MKLLARALRLCEFGRQASSRRLVAGQGCVGPRRGCCAPVQVVGPRADLPPCGACITGRIMRPDDANVAGNVHGGTILKMIEEAGAIISTRHCNSQNGERCVAALARVERTDFLSPMCIGEVAHVSAEITYTSKHSVEVQVNVMSENILTGAKKLTNKATLWYVPLSLKNVDKVLEVPPVVYSRQEQEEEGRKRYEAQKLERMETKWRNGDIVQPVLNPEPNTVSYSQSSLIHLVGPSDCTLHGFVHGGVTMKLMDEVAGIVAARHCKTNIVTASVDAINFHDKIRKGCVITISGRMTFTSNKSMEIEVLVDADPVVDSSQKRYRAASAFFTYVSLSQEGRSLPVPQLVPETEDEKKRFEEGKGRYLQMKAKRQGHAEPQP |  | 4.03
